# Source: patent US20260242735A1 (UNIVERSIT T BASEL, published 2026)
# Columns and labels:
# Assay in all cases: alanine scan, flow cytometry, HEK293-T;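 also: antibody binding to each alanine-substituted CD33 mutant expressed transiently in HEK293-T, read as fluorescence minus background, mean of duplicates, relative to wild-type CD33 set as 100%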
# human CD33 I199A = human CD33 I199A (human, UniProt P20138 18-364)
# human CD33 P184A = human CD33 P184A (human, UniProt P20138 18-364)
# human CD33 T222A = human CD33 T222A (human, UniProt P20138 18-364)
# human CD33 T192A = human CD33 T192A (human, UniProt P20138 18-364)
# human CD33 L180A = human CD33 L180A (human, UniProt P20138 18-364)
# human CD33 P201A = human CD33 P201A (human, UniProt P20138 18-364)
# human CD33 A217S = human CD33 A217S (human, UniProt P20138 18-364)
# human CD33 G172A = human CD33 G172A (human, UniProt P20138 18-364)
# human CD33 T200A = human CD33 T200A (human, UniProt P20138 18-364)
# human CD33 A182S = human CD33 A182S (human, UniProt P20138 18-364)
# human CD33 S178A = human CD33 S178A (human, UniProt P20138 18-364)
# human CD33 F177A = human CD33 F177A (human, UniProt P20138 18-364)
# human CD33 S194A = human CD33 S194A (human, UniProt P20138 18-364)
# human CD33 N230A = human CD33 N230A (human, UniProt P20138 18-364)
# human CD33 T240A = human CD33 T240A (human, UniProt P20138 18-364)
# human CD33 A183S = human CD33 A183S (human, UniProt P20138 18-364)
# human CD33 L277A = human CD33 L277A (human, UniProt P20138 18-364)
# human CD33 R254A = human CD33 R254A (human, UniProt P20138 18-364)
# human CD33 Q251A = human CD33 Q251A (human, UniProt P20138 18-364)
# human CD33 T299A = human CD33 T299A (human, UniProt P20138 18-364)
# human CD33 C274A = human CD33 C274A (human, UniProt P20138 18-364)
# human CD33 G263A = human CD33 G263A (human, UniProt P20138 18-364)
# human CD33 T292A = human CD33 T292A (human, UniProt P20138 18-364)
# human CD33 I262A = human CD33 I262A (human, UniProt P20138 18-364)
# human CD33 S305A = human CD33 S305A (human, UniProt P20138 18-364)
# human CD33 N297A = human CD33 N297A (human, UniProt P20138 18-364)
# human CD33 V294A = human CD33 V294A (human, UniProt P20138 18-364)
# human CD33 I278A = human CD33 I278A (human, UniProt P20138 18-364)
# human CD33 A289S = human CD33 A289S (human, UniProt P20138 18-364)
# human CD33 A290S = human CD33 A290S (human, UniProt P20138 18-364)
# human CD33 P244A = human CD33 P244A (human, UniProt P20138 18-364)
# human CD33 A269S = human CD33 A269S (human, UniProt P20138 18-364)
# human CD33 G304A = human CD33 G304A (human, UniProt P20138 18-364)
# human CD33 V257A = human CD33 V257A (human, UniProt P20138 18-364)
# human CD33 L275A = human CD33 L275A (human, UniProt P20138 18-364)
# human CD33 R296A = human CD33 R296A (human, UniProt P20138 18-364)
# Sequence of human CD33 N230A (P20138 18-364 N230A limits assumed): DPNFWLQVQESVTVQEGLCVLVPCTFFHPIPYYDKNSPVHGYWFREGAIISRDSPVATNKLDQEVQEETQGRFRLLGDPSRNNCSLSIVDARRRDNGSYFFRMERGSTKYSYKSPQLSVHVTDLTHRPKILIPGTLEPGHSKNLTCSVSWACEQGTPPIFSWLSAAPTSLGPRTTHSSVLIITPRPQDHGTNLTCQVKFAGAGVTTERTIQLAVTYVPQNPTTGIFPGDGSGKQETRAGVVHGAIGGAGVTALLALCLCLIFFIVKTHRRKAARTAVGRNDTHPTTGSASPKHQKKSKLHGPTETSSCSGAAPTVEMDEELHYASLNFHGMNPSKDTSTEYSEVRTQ
# Sequence of human CD33 S194A (P20138 18-364 S194A limits assumed): as the sequence (P20138 18-364 N230A limits assumed) above, with S177A, A213N counted along it
# Sequence of human CD33 P201A (P20138 18-364 P201A limits assumed): as the sequence (P20138 18-364 N230A limits assumed) above, with P184A, A213N counted along it
# Sequence of human CD33 T192A (P20138 18-364 T192A limits assumed): as the sequence (P20138 18-364 N230A limits assumed) above, with T175A, A213N counted along it
# Sequence of human CD33 S178A (P20138 18-364 S178A limits assumed): as the sequence (P20138 18-364 N230A limits assumed) above, with S161A, A213N counted along it
# Sequence of human CD33 G172A (P20138 18-364 G172A limits assumed): as the sequence (P20138 18-364 N230A limits assumed) above, with G155A, A213N counted along it
# Sequence of human CD33 T222A (P20138 18-364 T222A limits assumed): as the sequence (P20138 18-364 N230A limits assumed) above, with T205A, A213N counted along it
# Sequence of human CD33 F177A (P20138 18-364 F177A limits assumed): as the sequence (P20138 18-364 N230A limits assumed) above, with F160A, A213N counted along it
# Sequence of human CD33 T240A (P20138 18-364 T240A limits assumed): as the sequence (P20138 18-364 N230A limits assumed) above, with A213N, T223A counted along it
# Sequence of human CD33 T200A (P20138 18-364 T200A limits assumed): as the sequence (P20138 18-364 N230A limits assumed) above, with T183A, A213N counted along it
# Sequence of human CD33 I199A (P20138 18-364 I199A limits assumed): as the sequence (P20138 18-364 N230A limits assumed) above, with I182A, A213N counted along it
# Sequence of human CD33 A182S (P20138 18-364 A182S limits assumed): as the sequence (P20138 18-364 N230A limits assumed) above, with A165S, A213N counted along it
# Sequence of human CD33 L180A (P20138 18-364 L180A limits assumed): as the sequence (P20138 18-364 N230A limits assumed) above, with L163A, A213N counted along it
# Sequence of human CD33 A217S (P20138 18-364 A217S limits assumed): as the sequence (P20138 18-364 N230A limits assumed) above, with A200S, A213N counted along it
Mean % WT Binding (human CD33 I199A) [%],Mean % WT Binding (human CD33 P184A) [%],Mean % WT Binding (human CD33 T222A) [%],Mean % WT Binding (human CD33 T192A) [%],Mean % WT Binding (human CD33 L180A) [%],Mean % WT Binding (human CD33 P201A) [%],Mean % WT Binding (human CD33 A217S) [%],Mean % WT Binding (human CD33 G172A) [%],Mean % WT Binding (human CD33 T200A) [%],Mean % WT Binding (human CD33 A182S) [%],Mean % WT Binding (human CD33 S178A) [%],Mean % WT Binding (human CD33 F177A) [%],Mean % WT Binding (human CD33 S194A) [%],Mean % WT Binding (human CD33 N230A) [%],Mean % WT Binding (human CD33 T240A) [%],Mean % WT Binding (human CD33 A183S) [%],Mean % WT Binding (human CD33 L277A) [% WT binding],Mean % WT Binding (human CD33 R254A) [% WT binding],Mean % WT Binding (human CD33 Q251A) [% WT binding],Mean % WT Binding (human CD33 T299A) [% WT binding],Binder,further results
112,103,117,102,102,90.9,148,107,82.4,127,112,60.4,101,109,97.9,117,,,,,"Refmab #3 (antibody, V domains shown, In the alanine scan antibodies were used as IgG or Fab) VH: QVQLVQSGAEVKKPGSSVKVSCKASGYTFTDYNMHWVRQAPGQGLEWIGYIYPYNGGTGYNQKFKSKATITADESTNTAYMELSSLRSEDTAVYYCARGRPAMDYWGQGTLVTVSS VL: DIQMTQSPSSLSASVGDRVTITCRASESVDNYGISFMNWFQQKPGKAPKLLIYAASNQGSGVPSRFSGSGSGTDFTLTISSLQPDDFATYYCQQSKEVPWTFGQGTKVEIK",
125,111,121,119,118,110,109,109,111,115,113,67.5,112,96.4,111,119,,,,,"Refmab #2 (antibody, V domains shown, In the alanine scan antibodies were used as IgG or Fab) VH: QVQLVQSGAEVKKPGSSVKVSCKASGGTFSDYAISWVRQAPGQGLEWMGRIIPILGVADYAQKFQGRVTITADKSTRTAYMELSSLRSEDTAVYYCARNWADAFDIWGQGTMVTVSS VL: DIQLTQSPSSLSASVGDRVTITCRASQGISSVLAWYQQKPGKAPKLLIYDASSLESGVPSRFSGSGSGTDFTLTISSLQPEDFATYYCQQFDSSITFGQGTKLEIK",
,,,,,,,,,,,,,,,,117,118,117,96.3,"Refmab #2 (antibody, V domains shown, The alanine scan used IgG or Fab) VH: QVQLVQSGAEVKKPGSSVKVSCKASGGTFSDYAISWVRQAPGQGLEWMGRIIPILGVADYAQKFQGRVTITADKSTRTAYMELSSLRSEDTAVYYCARNWADAFDIWGQGTMVTVSS VL: DIQLTQSPSSLSASVGDRVTITCRASQGISSVLAWYQQKPGKAPKLLIYDASSLESGVPSRFSGSGSGTDFTLTISSLQPEDFATYYCQQFDSSITFGQGTKLEIK",Mean % WT Binding (human CD33 C274A): 117 % WT binding; Mean % WT Binding (human CD33 G263A): 102 % WT binding; Mean % WT Binding (human CD33 T292A): 94.2 % WT binding; Mean % WT Binding (human CD33 I262A): 115 % WT binding; Mean % WT Binding (human CD33 S305A): 107 % WT binding; Mean % WT Binding (human CD33 N297A): 108 % WT binding; Mean % WT Binding (human CD33 V294A): 105 % WT binding; Mean % WT Binding (human CD33 I278A): 106 % WT binding; Mean % WT Binding (human CD33 A289S): 111 % WT binding; Mean % WT Binding (human CD33 A290S): 120 % WT binding; Mean % WT Binding (human CD33 P244A): 112 % WT binding; Mean % WT Binding (human CD33 A269S): 111 % WT binding; Mean % WT Binding (human CD33 G304A): 111 % WT binding; Mean % WT Binding (human CD33 V257A): 108 % WT binding; Mean % WT Binding (human CD33 L275A): 115 % WT binding; Mean % WT Binding (human CD33 R296A): 111 % WT binding
114,79.4,109,99.7,101,103,61.1,90.7,88.8,108,101,25.4,79,63.5,76.8,103,,,,,"Refmab #4 (antibody, V domains shown, In the alanine scan antibodies were used as IgG or Fab) VH: QVQLVQSGAEVKKPGESVKVSCKASGYTFTNYGMNWVKQAPGQGLEWMGWINTYTGEPTYADKFQGRVTMTTDTSTSTAYMEIRNLGGDDTAVYYCARWSWSDGYYVYFDYWGQGTSVTVSS VL: DIVMTQSPDSLTVSLGERTTINCKSSQSVLDSSTNKNSLAWYQQKPGQPPKLLLSWASTRESGIPDRFSGSGSGTDFTLTIDSPQPEDSATYYCQQSAHFPITFGQGTRLEIK",
98.5,82.9,88.7,101,91.3,85.6,80.2,86,85.2,85.8,94,68.4,93.7,83.6,111,85.4,,,,,"Refmab #1 (antibody, V domains shown, In the alanine scan antibodies were used as IgG or Fab; also called hP67.6) VH: EVQLVQSGAEVKKPGSSVKVSCKASGYTITDSNIHWVRQAPGQSLEWIGYIYPYNGGTDYNQKFKNRATLTVDNPTNTAYMELSSLRSEDTAFYYCVNGNPWLAYWGQGTLVTVSS VL: DIQLTQSPSTLSASVGDRVTITCRASESLDNYGIRFLTWFQQKPGKAPKLLMYAASNQGSGVPSRFSGSGSGTEFTLTISSLQPDDFATYYCQQTKEVPWSFGQGTKVEVK",
,,,,,,,,,,,,,,,,85.5,101,98.8,90.3,"Refmab #1 (antibody, V domains shown, The alanine scan used IgG or Fab; also called hP67.6) VH: EVQLVQSGAEVKKPGSSVKVSCKASGYTITDSNIHWVRQAPGQSLEWIGYIYPYNGGTDYNQKFKNRATLTVDNPTNTAYMELSSLRSEDTAFYYCVNGNPWLAYWGQGTLVTVSS VL: DIQLTQSPSTLSASVGDRVTITCRASESLDNYGIRFLTWFQQKPGKAPKLLMYAASNQGSGVPSRFSGSGSGTEFTLTISSLQPDDFATYYCQQTKEVPWSFGQGTKVEVK",Mean % WT Binding (human CD33 C274A): 88.4 % WT binding; Mean % WT Binding (human CD33 G263A): 98.9 % WT binding; Mean % WT Binding (human CD33 T292A): 89.5 % WT binding; Mean % WT Binding (human CD33 I262A): 89.7 % WT binding; Mean % WT Binding (human CD33 S305A): 86.4 % WT binding; Mean % WT Binding (human CD33 N297A): 94.9 % WT binding; Mean % WT Binding (human CD33 V294A): 91.7 % WT binding; Mean % WT Binding (human CD33 I278A): 99.1 % WT binding; Mean % WT Binding (human CD33 A289S): 97.1 % WT binding; Mean % WT Binding (human CD33 A290S): 105 % WT binding; Mean % WT Binding (human CD33 P244A): 84.3 % WT binding; Mean % WT Binding (human CD33 A269S): 107 % WT binding; Mean % WT Binding (human CD33 G304A): 104 % WT binding; Mean % WT Binding (human CD33 V257A): 102 % WT binding; Mean % WT Binding (human CD33 L275A): 88.7 % WT binding; Mean % WT Binding (human CD33 R296A): 101 % WT binding
